Consider 14 molecules from patent US20140363427A1 (CRUCELL HOLLAND B V, published 2014).

Read-outs that look alike come from different tables or passages of the source.

Test [1] deals with T1, native RSV F protein from the RSV A2 strain (Respiratory Syncytial Virus strain A2, UniProt P03420 26-574). As to the kind of experiment: cell-based or functional assay.
The target in test [2] is T2, recombinant RSV F protein, strain A2, extracellular domain (Respiratory Syncytial Virus strain A2, UniProt P03420 26-524).
T2 construct: also called RSV F1 lysate (recombinant); RSV F lysate
As to the kind of experiment: ELISA, purified Fab, estimated EC50.

The target of test [3] is F protein of the parental RSV A2 strain (Example 11) (Respiratory Syncytial Virus strain A2, UniProt P03420 26-574). As to the kind of experiment: cell-based or functional assay.
Test [4] concerns the target T2, recombinant RSV F protein, strain A2, …. As to the kind of experiment: ELISA, IgG titrated, estimated EC50.
The target of test [5] is F protein of RSV B-wash (strain 18537) (respiratory syncytial virus B, strain …, UniProt P13843 26-574). As to the kind of experiment: cell-based or functional assay.
Test [6] has as its target F protein of RSV B-1 (respiratory syncytial virus B-1, UniProt O36634 26-574). In words: cell-based or functional assay.
The target of test [7] is T2, recombinant RSV F protein, strain A2, …. In words: comparison of ELISA EC50. (In general: An ELISA detects its analyte on a solid surface through an enzyme-linked reagent.)
The target of test [8] is T1, native RSV F protein from the RSV A2 …. As to the kind of experiment: ELISA, IgG titrated, estimated EC50.
The target is the same in test [9]. As to the kind of experiment: cell-based or functional assay. This is another data set of the same source.
The target in test [10] is F protein of the parental RSV A2 strain (Example 11) (Respiratory Syncytial Virus strain A2, UniProt P03420 26-574). As to the kind of experiment: cell-based or functional assay. The source holds these as a separate data set.
In test [11] the target is T1, native RSV F protein from the RSV A2 …. As to the kind of experiment: ELISA, purified Fab, estimated EC50.

B1: Fab 90D3 (Fab, V domains shown)
VH: QVQLVESGGGLVKPGGSLRLSCVGSGFTLKNYEMNWVRQAPGQGLQYISYISSSGNVVKYVDSVQGRFTISRDNAGNSLYLQMNNLRAEDTATYYCVRGFSIDKYDSSVDEYWGQGIAVTVSS
VL: AIRLTQSPSSLSASVGDRVSITCRASQSISNFLNWYQQKPGRAPKLLISAASSLQGGVPSRFSGSGSGTDFTLTISSLQPEDFATYYCQQTYISLYTFGQGTKLEIKR
For B1, in test [1], the “ED50, plaque reduction, RSV A2” value came out at 0.8 nM.

B2: Fab 69F6 (Fab, V domains shown)
VH: QMQLVQSGAEVRKPGESLKIACKGSGYSFTSYWIAWVRQMPGKGLEWLGIIFPNDSDATYSPSFQGQVTMSVDKSISTAYLQWNSLKASDTAVYFCARQYYLGSFESWGQGTTVTVSS
VL: EIVLTQSPSSLSASVGDRVTISCQASQDISNYLNWYQQKPGKAPRLLIYDASYLDTGVPSRFSGSGSGTDFTFTISSLQPEDFATYYCQQYDDLRGGFTFGPGTKVDVKR
notes: also called 69F6 Fab
The term EC50 denotes the concentration at which the effect is half-maximal. Turning to B2, the half-maximal effective concentration (EC50) in test [2] is 0.135 nM. The “ED50, plaque reduction, RSV A2” value in test [1] is 0.26 nM. Further, in test [3], the “ED50, plaque reduction, RSV A2 parental” value was determined as 0.256 nM.

B3: IgG form of 69F6 (antibody, V domains shown)
VH: B2 VH
VL: B2 VL
For B3, the EC50 in [4] was 0.063 nM. For the same molecule, the “ED50, plaque reduction, RSV B/wash” value in test [5] was more than 67 nM. Besides, the “ED50, plaque reduction, RSV B-1” value in test [6] was more than 67 nM. For the same molecule, in test [7], the “fold less affinity than the IgG form of 30D8” value is approximately 10 fold.

B4: IgG form of 14G3 (antibody, V domains shown)
VH: QVQLQESGPGLVKPSQTLSLTCTVSGASISSDNHYWSWIRQPPGKGLEWIASIYYTGGTNYNPSLKSRLALSIDTSGDQFSLKLSSVTAADTAVYYCVRGLFFITARPYWYFDLWGRGTLVAVSS
VL: DVVMTQTPLSLSVTPGEPASISCRSSQSLLDSDDGNTYLDWYLQKPGQSPQLLIYTLSYRASGVPDRFSGSGSGTDFTLKISRVEADDVGIYYCMQRMEFPFTFGQGTRLDIKR
Turning to B4, the EC50 in test [4] is 0.251 nM. Also, the “ED50, plaque reduction, RSV B/wash” value in test [5] came out at 4.5 nM. In [6], the “ED50, plaque reduction, RSV B-1” value was determined as 10.7 nM.

B5: Fab 56E11 (Fab, V domains shown)
VH: EVQLQESGPGLVKPSETLSLTCSVSGVSINSNNYFWAWIRQPPGKGLEWIGNIYYGGSTHYNASLQSRVTISVDTSKSQFSLKLNSVTSADTAVYYCAASESIFWDYYYGLDVWGQGTTVTVSS
VL: QAVLTQPPSASGSPGQSVTISCTGTSSDVGGYNYVSWYQQHPGKAPRLIISEVTKRPSGVPGRFSGSKSGNTASLTVSGLQAEDEADYYCSSYAGSRHVVFGGGTKLTVLG
notes: also called 56E11 Fab
As to B5, the concentration for a half-maximal effect (EC50) in [2] was 0.545 nM. Further, the “ED50, plaque reduction, RSV A2” value in [1] is 0.93 nM.

B6: IgG form of 56E11 (antibody, V domains shown)
VH: B5 VH
VL: B5 VL
Regarding B6, the EC50 in test [4] is 0.073 nM. Further, in test [5], the “ED50, plaque reduction, RSV B/wash” value amounted to 0.282 nM. In [6], the “ED50, plaque reduction, RSV B-1” value worked out at 0.295 nM. For the same molecule, the “fold less affinity than the IgG form of 30D8” value in test [7] was approximately 10 fold.

B7: Fab 17C9 (Fab, V domains shown)
VH: QVQLQQWGAGLVRPSETLSLTCAVYGDSFNDYFWTWIRQTPGKGLEWIGEISHSGSTNYSPSLKSRVTISVDTSKNQFSLKLSAVTAADTTVYFCARGVRSRPPPSYRGSGSPPYYHYGMDVWGQGTTVTVSS
VL: EIVLTQSPSTLSASVGDRVTITCRASQNINTWLAWYQQKPGKAPKLLIYAASFLQSGVPSRFSGSGSGTDFTLTISNLQPEDFATYFCQQANSFPRTFGQGTKVEVKR
notes: also called 17C9 Fab
As for B7, the 50% effective concentration (EC50) in [2] was 0.136 nM. In addition, the “ED50, plaque reduction, RSV A2” value in test [1] was determined as 0.352 nM. Moreover, the “ED50, plaque reduction, RSV A2 parental” value in [3] worked out at 0.436 nM.

B8: IgG form of 17C9 (antibody, V domains shown)
VH: B7 VH
VL: B7 VL
As to B8, the EC50 in test [8] was 0.059 nM. Further, in test [5], the “ED50, plaque reduction, RSV B/wash” value was found to be 0.86 nM. Further, the “ED50, plaque reduction, RSV B-1” value in test [6] amounted to 0.329 nM. Moreover, the “ED50, plaque reduction, RSV A2” value in test [9] was 0.363 nM.

B9: Motavizumab IgG (antibody, V domains shown)
VH: QVTLRESGPALVKPTQTLTLTCTFSGFSLSTAGMSVGWIRQPPGKALEWLADIWWDDKKHYNPSLKDRLTISKDTSKNQVVLKVTNMDPADTATYYCARDMIFNFYFDVWGQGTTVTVSS
VL: DIQMTQSPSTLSASVGDRVTITCSASSRVGYMHWYQQKPGKAPKLLIYDTSKLASGVPSRFSGSGSGTEFTLTISSLQPDDFATYYCFQGSGYPFTFGGGTKVEIK
For the molecule B9, the EC50 in test [8] is 0.027 nM. Moreover, the “ED50, plaque reduction, RSV B/wash” value in test [5] is 2.9 nM. In test [6], the “ED50, plaque reduction, RSV B-1” value was 0.833 nM. Further, in [9], the “ED50, plaque reduction, RSV A2” value was found to be 0.36 nM. Further, the “ED50, plaque reduction, RSV A2 parental” value in test [10] amounted to 0.519 nM.

B10: Fab 104E5 (Fab, V domains shown)
VH: QVQLEQSGAEVKKPGSSVKVSCKPSGGTFDTYTISWVRQAPGQRLEWLGRIIPSLGETNYAHKLQGRVTITADKATSVVYMDLSDLTSEDAAVYYCAFRITGPVDWVWDYGMDVWGQGTTVSVSS
VL: DIQMTQSPSSLPASVGDRVTITCRASQNIKTYLNWYQQKPGRAPKLLISAVSNLQSGVPSRFSGTGSGTDFTLTISSLQPEDFATYYCQQSFSIPLTFGGGAKVEIKR
Consider B10, for which, in [11], the EC50 was 0.08 nM. In test [1], the “ED50, plaque reduction, RSV A2” value was 0.58 nM and the “ED50, plaque reduction, RSV A2 (mass concentration)” value stood at 0.029 µg/mL.

B11: IgG form of 104E5 (antibody, V domains shown)
VH: B10 VH
VL: B10 VL
As to B11, the EC50 in [8] was 0.0145 nM. Further, in [5], the “ED50, plaque reduction, RSV B/wash” value worked out at 8 nM. The “ED50, plaque reduction, RSV B-1” value in [6] is 1.7 nM. For the same molecule, in test [9], the “ED50, plaque reduction, RSV A2” value was determined as 0.8 nM.

B12: Fab 30D8 (Fab, V domains shown)
VH: EVQLLQSGAELKKPGASVKISCKTSGFTFSGHTIAWVRQAPGQGLEWMGWVSTNNGNTEYAQKIQGRVTMTMDTSTSTVYMELRSLTSDDTAVYFCAREWLVMGGFAFDHWGQGTLLTVSS
VL: QSVLTQASSVSVAPGQTARITCGANNIGSQNVHWYQQKPGQAPVLVVYDDRDRPSGIPDRFSGSNSGNTATLTISRVEAGDEADYYCQVWDSSRDQAVIFGGGTKLTVLG
For B12, the “ED50, plaque reduction, RSV A2” value in test [1] amounted to 0.107 nM.

B13: Fab 38F10 (Fab, V domains shown)
VH: EVQLLESGGDVVQPGKSLRLSCTASGFSITDFGIHWVRQAPGKGLEWVALISYNEVNIHYGESVRGRFTISRDIAKNTVYLQMNGLRPEDTGVYFCARDVWEDSWLSLACFQEWGQGSLVVVSS
VL: DIQLTQSPPTLSASVGDRVSMTCRASQSISNWLAWYQQKPGKAPKLLIQKASNLEDGVPSRFTASGFGTEFTLTISSLQPDDFATYYCQQYNSYSGLSFGGGTKVDIKR
On to B13, for which the EC50 in test [11] is 0.177 nM. For the same molecule, in test [1], the “ED50, plaque reduction, RSV A2” value was found to be 0.8 nM and the “ED50, plaque reduction, RSV A2 (mass concentration)” value was determined as 0.04 µg/mL.

B14: IgG form of 38F10 (antibody, V domains shown)
VH: B13 VH
VL: B13 VL
Take B14: the 50% effective concentration (EC50) in test [8] was 0.035 nM. Further, in [5], the “ED50, plaque reduction, RSV B/wash” value turned out to be 5.3 nM. Further, the “ED50, plaque reduction, RSV B-1” value in test [6] was 1.4 nM. For the same molecule, in test [9], the “ED50, plaque reduction, RSV A2” value amounted to 0.553 nM.
